Consider 3 molecules from patent US20250361296A1 (BIOCYTOGEN PHARMACEUTICALS BEIJING, published 2025).

For orientation: EC50 means the concentration that produces a half-maximal response. What is called Kd is the concentration at which binding is half-saturated. Low readings indicate a tighter complex, high ones a looser complex. As a reminder, the koff is the rate constant with which the complex falls apart. Low readings indicate slow dissociation, high ones fast dissociation. By kon is commonly meant a measure of how fast the partners come together. A lower kon goes with slower complex formation.

Experiment [1] deals with human SIGLEC6 on CHO-S-hSIGLEC6 cells (human, UniProt O43699 27-347). Put plainly: flow cytometry, CHO-S cells expressing the target. How it is done: CHO-S-hSIGLEC15 cells, CHO-S-mSIGLEC15 cells, CHO-S-fasSIGLEC15 cells or CHO-S-dSIGLEC15 cells were transferred to a 96-well plate at a density of 5×10⁴ cells/well respectively. Serially diluted sample anti-SIGLEC15 antibodies were added to the 96-well plate, and incubated at 4° C. for 30 min. Then, the cells were incubated with the secondary antibody anti-hIgG-Fc-Alex Flour 647 (RL1-H) (Jackson ImmunoResearch Laboratories, Inc., 109-606-170) at 4° C. in the dark for 15 minutes before flow cytometry analysis.
human SIGLEC6 on CHO-S-hSIGLEC6 cells, sequence (O43699 27-347): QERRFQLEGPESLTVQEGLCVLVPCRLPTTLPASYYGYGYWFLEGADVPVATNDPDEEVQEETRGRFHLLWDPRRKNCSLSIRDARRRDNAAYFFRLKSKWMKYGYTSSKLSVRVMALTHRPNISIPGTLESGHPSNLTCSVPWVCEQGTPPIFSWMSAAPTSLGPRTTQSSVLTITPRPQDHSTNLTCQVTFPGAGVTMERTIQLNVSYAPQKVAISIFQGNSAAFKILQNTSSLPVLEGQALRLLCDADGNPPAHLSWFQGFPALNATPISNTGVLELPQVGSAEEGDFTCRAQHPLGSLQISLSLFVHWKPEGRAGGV
Another similar experiment was performed to determine whether the anti-SIGLEC15 antibodies can bind with other SIGLEC family proteins. CHO-S-hSIGLEC1 cells (expressing hSIGLEC1, SEQ ID NO: 49)), CHO-S-hSIGLEC2 cells (expressing hSIGLEC2, SEQ ID NO: 50), CHO-S-hSIGLEC4 cells (expressing hSIGLEC4, SEQ ID NO: 51), CHO-S-hSIGLEC5 cells (expressing hSIGLEC5, SEQ ID NO: 52), CHO-S-hSIGLEC6 cells (expressing hSIGLEC6, SEQ ID NO: 53), CHO-S-hSIGLEC7 cells (expressing hSIGLEC7, SEQ ID NO: 54), CHO-S-hSIGLEC8 cells (expressing hSIGLEC8, SEQ ID NO: 55), CHO-S-hSIGLEC9 cells (expressing hSIGLEC9, SEQ ID NO: 56), CHO-S-hSIGLEC10 cells (expressing hSIGLEC10, SEQ ID NO: 57), CHO-S-hSIGLEC11 cells (expressing hSIGLEC11, SEQ ID NO: 58), CHO-S-hSIGLEC12 cells (expressing hSIGLEC12, SEQ ID NO: 59), CHO-S-hSIGLEC14 cells (expressing hSIGLEC14, SEQ ID NO: 60) or CHO-S-hSIGLEC16 cells (expressing hSIGLEC16, SEQ ID NO: 61) were used.

Experiment [2] addresses T1, human SIGLEC15 on CHO-S-hSIGLEC15 cells (human, UniProt Q6ZMC9 20-328).
T1 sequence: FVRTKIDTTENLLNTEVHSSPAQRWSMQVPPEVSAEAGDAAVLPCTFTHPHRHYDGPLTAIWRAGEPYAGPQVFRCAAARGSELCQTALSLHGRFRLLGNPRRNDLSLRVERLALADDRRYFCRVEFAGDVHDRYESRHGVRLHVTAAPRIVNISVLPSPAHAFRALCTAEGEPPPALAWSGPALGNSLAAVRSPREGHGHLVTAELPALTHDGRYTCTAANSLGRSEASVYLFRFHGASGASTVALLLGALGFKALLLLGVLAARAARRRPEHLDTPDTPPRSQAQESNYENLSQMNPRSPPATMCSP
Put plainly: flow cytometry (MFI) on CHO-S-hSIGLEC15 cells; antibody sample: 0 d. How it is done:
(§1) In the activity detection experiment, 30 μL of CHO-S-hSIGLEC15 cells were added to the culture plate, and the antibody to be tested was added in a gradient dilution ([…]), and incubated at 4° C. for 30 min. The plate was washed with PBS, and diluted secondary antibody Anti-hIgG-Fc-Alex Flour 647 (RL1-H) (1:2000) was added, incubated at 4° C. for 30 min. The plate was washed once with PBS and the cells were resuspended for flow cytometry detection. MFI value was derived by FlowJo 7.6.1 analysis to calculate EC50.
(In general: In flow cytometry, cells or beads pass a laser one at a time.)

Experiment [3] concerns the target T1, human SIGLEC15 on CHO-S-hSIGLEC15 cells. Put plainly: flow cytometry (MFI) on CHO-S-hSIGLEC15 cells; antibody sample: freeze 1. How it is done: as §1
Experiment [4] has the same target. Put plainly: flow cytometry (MFI) on CHO-S-hSIGLEC15 cells; antibody sample: 25° C. 7 d. How it is done: as §1
Experiment [5] shares this target. Put plainly: flow cytometry (MFI) on CHO-S-hSIGLEC15 cells; antibody sample: pH 3.5 6 h. The protocol: as §1
For experiment [6], the target named is T2, His-tagged human SIGLEC15 protein (hSIGLEC15-His, Novoprotein Scientific Inc., Cat #: CW37) (human, UniProt Q6ZMC9 20-263).
T2 construct: Bought protein; not shown: His tag
T2 sequence: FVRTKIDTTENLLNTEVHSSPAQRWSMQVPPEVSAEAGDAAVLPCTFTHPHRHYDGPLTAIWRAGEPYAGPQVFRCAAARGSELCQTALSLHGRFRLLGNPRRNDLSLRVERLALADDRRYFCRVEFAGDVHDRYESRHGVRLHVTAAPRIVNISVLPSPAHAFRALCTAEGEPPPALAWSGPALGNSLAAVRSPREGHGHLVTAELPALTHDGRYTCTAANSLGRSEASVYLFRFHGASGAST
Put plainly: SPR (Biacore 8K), antibody captured on Protein A chip, His-tagged SIGLEC15 as analyte. How it is done:
Purified anti-SIGLEC15 antibodies was captured on the Protein A chip (Series S Sensor Chip Protein A) for the detection. […] The flow rate was 30 μL/min, the binding and dissociation time were set to 180 s and 600 s, respectively. The chip was regenerated after the last injection of each titration with a glycine solution (pH 2.0) at 30 μL/min for 30 seconds.
Kinetic association rates (kon) and dissociation rates (koff) were obtained simultaneously by fitting the data globally to a 1:1 Langmuir binding model (Karlsson, R. Roos, H. Fagerstam, L. Petersson, B., 1994. Methods Enzymology 6. 99-110) using Biacore™ 8K Evaluation Software 3.0. Affinities were deduced from the quotient of the kinetic rate constants (KD=koff/kon). As a person of ordinary skill in the art would understand, the same method with appropriate adjustments for parameters (e.g., antibody concentration) was performed for each tested antibody.

B1: anti-SIGLEC15 antibody 10A7 (antibody, human IgG1, V domains shown)
VH: EVQLVQSGGGLVQPGGSLRLSCAASGFTFSNYEMNWVRQAPGKGLEWISYISNSGSTIYYADSVKGRFTISRDDAKNSLYLQMNSLRAEDTAVYYCAREDYDSSGYYWFDPWGQGTPVTVSS
VL: DIQLTQSPSSVSASVGDRVTITCRASQGISSWLAWYQQKPGKAPKLLIYAASSLQSGVPSRFSGSGSGTDFTLTINSLQPEDFATYYCQQTNSFPLTFGGGTKVEIK
As for B1, in experiment [1], the “Percentage of Positive Cells” value was 0.7% and the binding result is “no binding”.

B2: anti-SIGLEC15 antibody 10C9 (antibody, human IgG1, V domains shown)
VH: QVQLVQSGAEVKKPGATVKVSCKASGYTFTNYGFSWVRQAPGQGLEWMGWINTYNDNTNYAQKFQGRVTMTTDTSTSTAYMELRSLRSDDTAVYYCARDGLWFGELPHYFDYWGQGTLVTVSS
VL: DIQLTQSPLSSPVTLGQPASISCRSSQSLVNSDGETFLSWLQQRPGQPPRLLIYKISNRFSGVPDRFSGSGAGTDFTLKISRVEAEDVGVYYCMQATQFPHTFGQGTKLEIK
Take B2: in experiment [1], the “Percentage of Positive Cells” value stood at 0.5% and the binding result is “no binding”. This molecule also yielded an EC50 in experiment [2] of 1.17 µg/mL. In experiment [3], this molecule displayed an EC50 of 0.62 µg/mL. A half-maximal response in experiment [4] (EC50) required 0.65 µg/mL. The molecule also displayed an EC50 in experiment [5] of 0.11 µg/mL. Besides, in experiment [6], the dissociation constant (Kd) turned out to be 0.0846 pM, the koff is 2.23e-07 s⁻¹ and the kon turned out to be 2.63e+06 M⁻¹ s⁻¹.

B3: anti-SIGLEC15 antibody 23F4 (antibody, human IgG1, V domains shown)
VH: QVQLQQWGAGLLKPSETLSLTCAVYGGSFSGYFWSWIRQPPGKGLEWIGEINHSGSTNYNPSLKSRVTLSVDTSKNQFSLKLSSVTAADTAVYYCAREGDSSSWGNWFDPWGQGTLVTVSS
VL: EIVLTQSPGTLSLSPGERATLSCRASQSVSSSYLAWYQQKPGQAPRFLIYGASSRATGIPDRFSGSGSGTDFTLTISRLEPEDFAVYYCQQFGNSPLTFGGGTKVEIK
As to B3, in experiment [1], the “Percentage of Positive Cells” value worked out at 1.5% and the binding result is on record as “no binding”. Besides, in experiment [2], the EC50 amounted to 0.129 µg/mL. Besides, a half-maximal response in experiment [3] (EC50) required 0.125 µg/mL. In addition, in experiment [4], the EC50 amounted to 0.106 µg/mL. A half-maximal effect in experiment [5] (EC50) was put at 0.221 µg/mL. Also, in experiment [6], the Kd is 0.164 pM, the koff was 6.85e-07 s⁻¹ and the kon is 4.19e+06 M⁻¹ s⁻¹.
